Experiments:
LukD (GS) [1] = biological target: T1, LukD (GS) (Staphylococcus aureus, UniProt O54082 27-327); experiment: ELISA, plate coated with toxin component
T1 sequence: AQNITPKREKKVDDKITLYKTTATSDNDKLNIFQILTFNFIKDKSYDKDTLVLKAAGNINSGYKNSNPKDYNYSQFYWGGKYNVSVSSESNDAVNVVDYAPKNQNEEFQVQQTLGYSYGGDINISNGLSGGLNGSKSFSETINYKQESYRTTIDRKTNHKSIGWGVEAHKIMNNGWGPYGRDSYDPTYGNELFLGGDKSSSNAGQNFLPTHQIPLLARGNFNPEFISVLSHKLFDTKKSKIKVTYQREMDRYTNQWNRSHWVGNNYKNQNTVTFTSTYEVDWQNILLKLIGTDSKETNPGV
Procedure: (§1) MaxiSorp microtiter plates were coated overnight with 10 μg/mL of individual F-components of S. aureus bicomponent toxins per well. Recombinant toxin components were either obtained from IBT BioServices (Gaithersburg, Md.) or generated by GenScript (Piscataway Township, N.J.). […] Wells were washed 3 times and then incubated with 100 ng/mL anti-human HRP secondary antibody per well for one hour at 25° C. 100 μL of SuperSignal ELISA Pico Chemiluminescent Substrate, (ThermoFisher Scientific) was added to the wells and signal was detected (Victor X3 plate reader, Perkin Elmer). Luminescence values were analyzed by a three-parameter logistic equation over an 11-point response curve (GraphPad Prism). Isotype-matched irrelevant control antibody and S. aureus delta toxin were included as controls.

HlgB (GS) [2] = biological target: T2, HlgB (GS) (Staphylococcus aureus, UniProt P0A077 26-325); experiment: ELISA, plate coated with toxin component
T2 sequence: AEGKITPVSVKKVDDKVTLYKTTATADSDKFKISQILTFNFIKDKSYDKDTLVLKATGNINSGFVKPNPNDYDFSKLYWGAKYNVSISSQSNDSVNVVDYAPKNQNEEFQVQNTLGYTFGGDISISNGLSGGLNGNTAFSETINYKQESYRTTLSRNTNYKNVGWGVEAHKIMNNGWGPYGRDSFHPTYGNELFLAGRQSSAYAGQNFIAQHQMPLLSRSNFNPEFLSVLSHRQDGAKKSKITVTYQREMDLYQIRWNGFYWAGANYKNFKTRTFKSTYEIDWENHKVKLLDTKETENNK
Procedure: as §1

S. aureus delta toxin = S. aureus delta toxin (Staphylococcus aureus, UniProt P0C1V1 1-26); experiment: ELISA, plate coated with toxin component
Procedure: as §1

LukF (IBT) = biological target: T3, LukF (IBT) (Staphylococcus aureus); experiment: ELISA, plate coated with toxin component, chemiluminescence
T3 construct: also called LukF-PV; F-component LukF from IBT BioServices
Procedure: as §1

LukD (GS) [3] = biological target: T1, LukD (GS); experiment: as above
Procedure: as §1

HlgB (GS) [4] = biological target: T2, HlgB (GS); experiment: as above
Procedure: as §1

LukF (GS) = biological target: T4, LukF (GS) (Staphylococcus aureus); experiment: as above
T4 construct: also called LukF-PV; F-component LukF from GenScript
Procedure: as §1

Row | Binder | binding result (LukD (GS) [1]) | binding result (HlgB (GS) [2]) | binding result (S. aureus delta toxin) | EC50 (LukF (IBT)) [nM] | EC50 (LukD (GS) [3]) [nM] | EC50 (HlgB (GS) [4]) [nM] | EC50 (LukF (GS)) [nM]
1 | H1H15420P2 (antibody, V domains shown) VH: QVQLQESGLGLVKPSETLSLTCTVSGDSIGTYYWSWIRQPPGKGLEWIAYIYDSRHSNSNPSLKSRVTTSVDMSKNQFSLQLKSVTAADTAVYFCARDWGTWKPEGAFDIWGQGTMVTVSS VL: not shown | no binding (tested: titration 50 uM-100 pM) | no binding (tested: titration 50 uM-100 pM) | no binding (tested: titration 50 uM-100 pM) |  |  |  | 
2 | H1H15376P (antibody, V domains shown) VH: QVQLQQSGPGLVKPSQTLSLTCAISGDSVASNNAAWNWIRQSPSRGLEWLGRTYYRSKWFNDYVESVKSRISFNPDTSKNQFSLQLNSVTPEDTAVYYCARSYYDFWSGYSENNYYFYGMDVWGQGTTVTVSS VL: DIQMTQSPSSLSASVGDRVSITCRTSQGIRNDLGWYQQKPGKAPKRLIYAASSLQSGVPSRFSGSGSGTEFTLTISSLQPEDFATYYCLQHNIYPPTFGQGTKVEIK | no binding (tested: titration 50 uM-100 pM) | no binding (tested: titration 50 uM-100 pM) | no binding (tested: titration 50 uM-100 pM) |  |  |  | 
3 | H1H15381P (antibody, V domains shown) VH: EVQLVESGGGLVQPGGSLRLSCAASGFTFSRYDMHWVRQVTGKGLEWVSVIGTAGDTYYPDSVKGRFTISRENAKNSLSLQMNSLRAGDTAVYYCTRSYNWNFPFGYWGQGTLVTVSS VL: DIQMTQSPSTLSASVGDRVTITCRASQSISSWLAWYQQKPGKAPRLLIYEASSLETGVPSRFSGSGSGTEFTLTISSLQPDDFATYYCQQYNRYPWTFGQGTKVEIK |  |  | no binding (tested: titration 50 uM-100 pM) | 165 | 59.6 | 102 | 66.7

Reference: US20180214569A1 (Regeneron, published 2018)
